The series is described as follows: soluble on expression in E. coli; label from the status in PepcDB or PDB records.
With “MASENNGSRSDSESITAPKADSTVVEPRKIALITGITGQDGSYLTEFLLGKGYEVHGLIRRSSNFNTQRINHIYIDPHNVNKALMKLHYADLTDASSLRRWIDVIKPDEVYNLAAQSHVAVSFEIPDYTADVVATGALRLLEAVRSHTIDSGRTVKYYQAGSSEMFGSTPPPQSETTPFHPRSPYAASKCAAHWYTVNYREAYGLFACNGILFNHESPRRGENFVTRKITRALGRIKVGLQTKLFLGNLQASRDWGFAGDYVEAMWLMLQQEKPDDYVVATEEGHTVEEFLDVSFGYLGLNWKDYVEIDQRYFRPAEVDNLQGDASKAKEVLGWKPQVGFEKLVKMMVDEDLELAKREKVLVDAGYMDAKQQPLEHHHHHH”, the “soluble on expression in E. coli” value was “soluble”. “MASEQEKTADFGFRTVAKDEKEVMVAEVFHSVAAKYDLMNDLMSFGIHRIWKRFTIECSGVRRNQRVLDLAGGTGDLTAKFSRMVGEGGEVILADINASMLKVGREKLRNKGIIDNINYVQANAEALPFPDDFFDCITISFGLRNVTDKNKALRSMYRVLKPGGRLLVLEFSKPVIKQLSTIYDAYSFHILPRIGEAVASDAGSYRYLAESIRMHPDQETLKGMMSDAGFDSVNYFNLTGGIVALHRGFKFLEHHHHHH”: the “soluble on expression in E. coli” value is listed as “not soluble”. As for “MASGDLVRYVITVMLHEDTLTEINELNNYLTRDGFLLTMTDDEGNIHELGTNTFGLISTQSEEEIRELVSGLTQSATGKDPEITITTWEEWNSNRK”, the entry is “soluble”; as for “MASGQFVNKLQEEVICPICLDILQKPVTIDCGHNFCLKCITQIGETSCGFFKCPLCKTSVRKNAIR”, “soluble”; as for “MASHKLLVTPPKALLKPLSIPNQLLLGPGPSNLPPRIMAAGGLQMIGSMSKDMYQIMDEIKEGIQYVFQTRNPLTLVISGSGHCALEAALVNVLEPGDSFLVGANGIWGQRAVDIGERIGARVHPMTKDPGGHYTLQEVEEGLAQHKPVLLFLTHGESSTGVLQPLDGFGELCHRYKCLLLVDSVASLGGTPLYMDRQGIDILYSGSQKALNAPPGTSLISFSDKAKKKMYSRKTKPFSFYLDIKWLANFWGCDDQPRMYHHTIPVISLYSLRESLALIAEQGLENSWRQHREAAAYLHGRLQALGLQLFVKDPALRLPTVTTVAVPAGYDWRDIVSYVIDHFDIEIMGGLGPSTGKVLRIGLLGCNATRENVDRVTEALRAALQHCPKKKL”, “soluble”. The same measure for “MASIMYTPKDIFEQEFKSSMRGYDKKEVDEFLDDIIKDYETYISTIEELRQENTRLKEEVKQAKKRQEAAQTTVSPAASVSSSRVATTATNFDILKRISRLEKEVFGKQITE”: “not soluble”; for “MASISRFRGCLAGALLGDCVGAVYEAHDTVSLASVLSHVESLEPDPGTPGSARTETLYYTDDTAMTRALVQSLLAKEAFDEVDMAHRFAQEYKKDPDRGYGAGVITVFKKLLNPKCRDVYEPARAQFNGKGSYGNGGAMRVAGISLAYSSVQDVQKFARLSAQLTHASSLGYNGAILQALAVHLALQGVSSSEHFLEQLLGHMEELEGDAQSVLDAKELGMEERPYSSRLKKVGELLDQDVVSREEVVSELGNGIAAFESVPTAIYCFLRCMEPHPEIPSTFNSLQRTLIYSISLGGDTDTIATMAGAIAGAYYGMEQVPESWQQSCEGFEETDVLAQSLHRVFQES”: “soluble”.

“MASKKREVQLQSVVNSQNLWDEMLLNKGLTVIDVYQAWCGPCKAVQSLFRKLKNELNEDEILHFVVAEADNIVTLQPFRDKCEPVFLFSLNGKIIAKIQGANAPLINRKVITLIDEERKIVAGEMDRPQYVEIPLVDAIDEEYGEVQYESAAEVYNMAIIKPDAVLMRKNIEVREKIAKEGFVIEIQENLILPEEVVREFYTHIADQPDFEEFVVSMTNGLSCVLIVSQEDSEVIQEETLPQTDTEEEPGVLEEPHVRFAPVMIKKKRDSLQEYMDRQYMSDYCDVEDDAVKVFKLIDILFPDFKTMKSTNVQTTLALLHPDICEEEKDDVLNVIHNEGFTILMQRQIVLSEEEARTVCKIHENEEYFDNLIGHMTSNHSYVLALRRENGVEYWKTLIGPKTIEEAYASHPQSLCVQFASGNFPTNQFYGSSSKAAAEKEIAHFFPPQSTLALIKPHVTHKERIHRSSRR”: the “soluble on expression in E. coli” value is “not soluble”. For “MASKSQKKVLKKQNKKKKKDPLAPKRALSAYMFYVKDKRLEIIKEKPELAKDVAQVGKLIGEAWGQLSPAQKAPYEKKAQLDKVRYSKEIEEYRKKNQE”, the “soluble on expression in E. coli” value is reported as “soluble”. With “MASLLFRQARVFDGESVHTDYDVLVVDGKIAQLGSAIEAPADAEIIEAHGKTLLPGLIDSHTHAKPPALEMALTFGVTTELDMFSDPAWMTEQRREAQTRNSMADVRSAMTGASVAGGHPTGLVGVVFDKQCPVLENAEDAEAFVAARVAEGADYFKLVIEDGTILGHEVPRLSDEMVYALVAAAHAQGLMAVAHAMTVELALLAIRAGVDGLMHVAGDRLMTDEEVAEVAQSGIFVVPTLSTMASVYGDKHGQHLAEDDRTRPLLSDAWAENLCQCWHLTNPGSTANVIDATRRLYEAGVDVLAGSDAVTVGVPGTAHGVSMHGELELLVDCGLSPAAALRAATLLPAKRFSLDDRGRIAPGLQADLVLVDGDPTTDVRQTLSIEGVWRRGEQAPRIGQAEGVGTASAASAVAG”, the “soluble on expression in E. coli” value is recorded as “soluble”. As for “MASLRDIKAKINSTKKTSQITKAMEMVSASKLNRAEQNAKSFVPYMEKIQEVVASIAQGSKGINHPMLNARPVKRTGYIVITSDRGLAGGYNSNVLRTVSNVIRERHNMDSNQYSIIVLGRLGRDYLKRRGFNIIDEVVGLSDHPSFTDIKDLASRAIAMFADGAYDELYIYYNHYVSKISQEVTENKILPLTDVASDKPTTAYEFEPSEEEILKVLLPQYAESLVYGALLDGKASEHAARMTAMKSATDNAMEVIDSLTLSFNRARQAAITQEITEIVGGAAALE”, the entry is “not soluble”; as for “MASMTGGQQMGRGMAGPEIVKLKKILREKAVPPGTEVPLDVMRKGMEKVAFKAADDIQVEQVTVAGCAAEWVRAPGCQAGKAILYLHGGGYVMGSINTHRSMVGEISRASQAAALLLDYRLAPEHPFPAAVEDGVAAYRWLLDQGFKPQHLSISGDSAGGGLVLAVLVSARDQGLPMPASAIPISPWADMTCTNDSFKTRAEADPMVAPGGINKMAARYLNGADAKHPYASPNFANLKGLPPLLIHVGRDEVLLDDSIKLDAKAKADGVKSTLEIWDDMIHVWHAFHPMLPEGKQAIVRVGEFMREQWAALAAALEHHHHHH”, “soluble”; as for “MASNQIEGAVVGIRVNDGIAAAPVVLFTHEMPAVPERDFQSEQGEIERVKRAIGVVVQHLQEQAKQPKGEIFSAHSMMLSDPELWASVESRIQTGMIAEQAWIESLQTLADEFRQAESQYMREREADVHDIARQVMVEMTGVTPNAIDIQEPSILLARDLMPSDVAGLDKSKVLGICLSEGGKTSHSAILARAMGIPAMVKAQGCLDAVRAGQVVTIDGFRGHLWFSPSDAIQQELEAQQIEWQSTRQSALASAQQA”, “not soluble”.

Take “MASRKTVNRRQRPQRATSNVFAMFDQAQIQEFKEAFNMIDQNRDGFIDQEDLKDMFASLGKEVTEQFIDSMINEAPGAQPINFTMFLTLFGEKLTGTDPEEVIRNAFQCFDEDNSGKLNEEHLRELLTTMGERYSEEQVDELFRDAPIKGGQFDYVEFTRMLKHGTKDKDEA”: the “soluble on expression in E. coli” value is on record as “not soluble”.

For “MASSMRSLFSDHGKYVESFRRFLNHSTEHQCMQEFMDKKLPGIIGRIGDTKSEIKILSIGGGAGEIDLQILSKVQAQYPGVCINNEVVEPSAEQIAKYKELVAKTSNLENVKFAWHKETSSEYQSRMLEKKELQKWDFIHMIQMLYYVKDIPATLKFFHSLLGTNAKMLIIVVSGSSGWDKLWKKYGSRFPQDDLCQYITSDDLTQMLDNLGLKYECYDLLSTMDISDCFIDGNENGDLLWDFLTETCNFNATAPPDLRAELGKDLQEPEFSAKKEGKVLFNNTLSFIVIEA”, the “soluble on expression in E. coli” value is listed as “soluble”. For the sequence “MASTPRIVIIGAGIVGTNLADELVTRGWNNITVLDQGPLNMPGGSTSHAPGLVFQTNPSKTMASFAKYTVEKLLSLTEDGVSCFNQVGGLEVATTETRLADLKRKLGYAAAWGIEGRLLSPAECQELYPLLDGENILGGLHVPSDGLASAARAVQLLIKRTESAGVTYRGSTTVTGIEQSGGRVTGVQTADGVIPADIVVSCAGFWGAKIGAMIGMAVPLLPLAHQYVKTTPVPAQQGRNDQPNGARLPILRHQDQDLYYREHGDRYGIGSYAHRPMPVDVDTLGAYAPETVSEHHMPSRLDFTLEDFLPAWEATKQLLPALADSEIEDGFNGIFSFTPDGGPLLGESKELDGFYVAEAVWVTHSAGVAKAMAELLTTGRSETDLGECDITRFEDVQLTPEYVSETSQQNFVEIYDVLHPLQPRLSPRNLRVSPFHARHKELGAFFLEAGGWERPYWFEANAALLKEMPAEWLPPARDAWSGMFSSPIAAAEAWKTRTAVAMYDMTPLKRLEVSGPGALKLLQELTTADLAKKPGAVTYTLLLDHAGGVRSDITVARLSEDTFQLGANGNIDTAYFERAARHQTQSGSATDWVQVRDTTGGTCCIGLWGPLARDLVSKVSDDDFTNDGLKYFRAKNVVIGGIPVTAMRLSYVGELGWELYTSADNGQRLWDALWQAGQPFGVIAAGRAAFSSLRLEKGYRSWGTDMTTEHDPFEAGLGFAVKMAKESFIGKGALEGRTEEASARRLRCLTIDDGRSIVLGKEPVFYKEQAVGYVTSAAYGYTVAKPIAYSYLPGTVSVGDSVDIEYFGRRITATVTEDPLYDPKMTRLRG”, the “soluble on expression in E. coli” value is on record as “soluble”. As to “MATAAASVVSSETGDLRAYMAANPAAVIEEVAKQWNVSPHAVIAALPDGMARLGPGDGFVAAMNDIATWGEVTLIVHTEDAIFEFTGEVPRGEISRGYFNLMQPKGLHGHLRHDRCGALAFVERPFMGKASAFVAFLNRDGGIMFKVFVGRDANRELRADQLARFHALAKQFSEEHSALEHHHHHH”, the “soluble on expression in E. coli” value is given as “not soluble”.

For the sequence “MATEIDINRIQKDIFIEHKGEPYRVLDYEHVKPGKGQAFVRVKAKNMLTGNVTELTFKASDRIPLADFEQVYATYSYNDGENYYFMNTQTYDMIAVPKEKIEEEAKFLKEGMEVIVFLYKGQPIGIELPKHVELQVVETEPAFKGDTQAGGTKPAKLETGAVIQVPFFVKEGDIVKVDTRTGSYVERVKEAK”, the “soluble on expression in E. coli” value is listed as “soluble”.

For “MATEVTFFDELKIDNKVDIIGNNVRGELPNIWLQYGQFKLKASGGDGTYSWYSENTSIATVDASGKVTLNGKGSVVIKATSGDKQTVSYTIKAPSYMIKVDKQAYYADAMSICKNLLPSTQTVLSDIYDSWGAANKYSHYSSMNSITAWIKQTSSEQRSGVSSTYNLITQNPLPGVNVNTPNVYAVCVE”, the “soluble on expression in E. coli” value is given as “soluble”. The same measure for “MATFESSLKPRLIYVFAIADARHEGSLKIGETTLNDDVGSASTEPNSEVLNKAAKARIDQYTKTAGIGYELLYTELTIYFSGGRVCSFNDKQVHSVLERSGVKRKSFAGATEWYSCDLATVKRAISAIKEGKDSLGASEVTLSDNPIILRPEQKEAIERTLKQFRKGNKMLWNAKMRFGKTLCALRVAKEMEAVRTIIITHRPVVDASWFEDFGKTFYDRPEWHYGSRSKGESFASLEKLASQGKKCVYFASMQDMRGSKDVGGKFDKNNEVFSTSWDLVIVDEAHEGTQTELGKAVLGQLMGKDTKALHLSGTPYNLFDQHKEEEVFTWDYVMEQQAKIDWEINHLGDTNPYASLPAIHIYTYDLGRLISEYSDEEKAFNFREFFRTREDGSFVHEGDIDRFLSLLCREDEEALYPYSNEHFRQIFRHTLWILPGVRAAKALSKKLSKHPIFGLFKVANVAGDGDDEEEESRDALELVNQAIGKDPDETYTITLSCGRLTTGVSIKP”: “not soluble”.

The values are drawn from the DeepSol protein solubility set.
